Reference: the MegaScale stability set (Tsuboyama et al. 2023)

B1: 5KPH (parent)
chain: EEKRQVKQVAKEKLLEQSPNSKVQVRRVQKQGNTIRVELELRTNGKKENYTVEVERQGNTWTVKRITRT

Variants of: B1
Assay: folding stability dG (cDNA display proteolysis); higher = more stable
Conditions: PBS, room temperature

Folding stability dG [kcal/mol] of substitutions, site by site:
V9: Y 3.38 | G 1.81 | A 3.39 | T 3.15 | M 3.83 | C 3.28 | Q 3.26 | I 4.22 | P 1.9 | N 2.18 | S 2.4 | W 2.74 | D 1.82 | F 3.82 | E 2.33 | L 4.16 | H 2.88 | R 3.07 | K 3.39
L14: D 1.74 | V 3.65 | T 2.26 | E 1.7 | G 2.07 | I 3.75 | N 1.92 | C 3.29 | K 2.18 | F 2.92 | Q 1.9 | S 2.17 | A 3.13 | P 1.78 | R 2.08 | H 1.79 | M 4.02
A10: L 3.55 | K 1.92 | V 3.78 | M 2.73 | R 2.02 | T 2.76 | D 1.8 | Q 1.91 | Y 1.96 | G 2.6 | S 2.92 | C 3.26 | E 1.78 | H 1.69 | P 1.77 | F 2.24 | W 2.27 | N 1.88 | I 4.24
K11: M 4.37 | N 2.38 | H 2.85 | G 2.74 | A 3.8 | I 4.55 | V 4.49 | Q 3.45 | E 3.44 | Y 3.32 | S 3.8 | F 3.33 | T 3.86 | P 2.01 | L 3.99 | W 3.24 | D 1.94 | R 3.94 | C 3.75
V6: S 3.37 | A 4.84 | R 1.97 | D 1.95 | W 3.61 | F 2.99 | I 4.24 | Y 3.13 | C 3.31 | L 3.46 | G 3.48 | N 1.92 | Q 2.78 | P 3.55 | E 2.28 | K 2.05 | H 2.57 | T 2.66 | M 3.03
K13: R 3.61 | H 3.57 | A 4.53 | L 3.42 | D 1.86 | M 3.7 | V 4.12 | T 3.78 | P 2.43 | S 3.66 | G 3.55 | F 3.99 | C 3.62 | Y 4.07 | W 3.48 | E 2.79 | I 4.04 | Q 3.24 | N 2.71
E12: M 3.67 | N 3.73 | W 2.92 | P 1.8 | T 3.6 | V 3.21 | A 4.15 | G 3.34 | I 3.56 | S 3.79 | K 3.83 | C 3.52 | H 3.53 | R 3.89 | F 2.78 | L 3.47 | D 4.17 | Q 4.02 | Y 2.83
K7: T 4.58 | L 4.49 | V 4.86 | N 3.39 | E 4.5 | C 4.11 | R 3.85 | G 4.38 | S 4.63 | H 3.57 | M 4.8 | Q 4.19 | Y 3.86 | F 4.07 | P 2.66 | D 3.14 | I 4.82
Q8: M 3.59 | T 3.51 | P 2.29 | R 3.92 | K 4.16 | F 3.03 | V 3.31 | Y 2.78 | W 2.56 | I 3.76 | D 3.67 | C 3.49 | H 3.62 | S 3.55 | E 3.74 | G 3.2 | L 3.51 | A 3.76 | N 3.57
